Assay results published in article PMC4749545, “Kindlin-2 cooperates with talin to activate integrins and induces cell spreading by directly binding paxillin” (eLife, 2016).

Target: T1, recombinant murine kindlin-2 (mouse, UniProt Q8CIB5 1-680)
T1 construct: murine kindlin-2, unmodified after SenP2 cleavage of the His10-SUMO3 tandem tag; Vector pCoofy17; also called recombinant kindlin-2; purified kindlin-2; source: E. coli Rosetta, purified (Ni-NTA, SenP2 cleavage, size-exclusion chromatography); not shown: His10, N-terminal, cleaved; SUMO3, N-terminal, cleaved
T1 sequence (looked up): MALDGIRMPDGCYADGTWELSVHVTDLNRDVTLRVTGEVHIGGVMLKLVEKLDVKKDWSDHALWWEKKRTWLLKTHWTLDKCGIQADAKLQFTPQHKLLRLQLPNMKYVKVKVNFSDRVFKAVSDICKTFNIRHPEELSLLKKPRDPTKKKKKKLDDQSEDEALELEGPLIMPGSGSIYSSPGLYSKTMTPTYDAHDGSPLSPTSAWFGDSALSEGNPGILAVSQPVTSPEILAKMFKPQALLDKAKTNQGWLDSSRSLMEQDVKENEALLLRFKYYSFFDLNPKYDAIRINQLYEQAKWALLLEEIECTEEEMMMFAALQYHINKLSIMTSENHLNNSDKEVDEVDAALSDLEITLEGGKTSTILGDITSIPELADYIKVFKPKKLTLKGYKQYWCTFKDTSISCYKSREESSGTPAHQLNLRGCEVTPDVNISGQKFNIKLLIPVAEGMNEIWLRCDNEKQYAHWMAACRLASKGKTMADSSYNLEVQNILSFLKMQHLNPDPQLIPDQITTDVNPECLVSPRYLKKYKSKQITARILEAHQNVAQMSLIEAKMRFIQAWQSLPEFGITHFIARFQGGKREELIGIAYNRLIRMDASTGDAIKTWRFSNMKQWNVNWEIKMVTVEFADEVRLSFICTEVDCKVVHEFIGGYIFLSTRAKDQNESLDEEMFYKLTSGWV
Assay: pull-down; His10-tagged paxillin-LIM3 (35 µg) or paxillin-FL (10 µg) on Ni-NTA agarose, washed with 1 mM ZnCl2; 14 µg purified kindlin-2 added for 30 min at 4°C; 20 mM Tris pH 7.5, 200 mM NaCl, 1 mM TCEP, 0.05% Tween20; washes with 25 mM imidazole and 1 mM ZnCl2; SDS-PAGE
Conditions: both partners purified

B1: His10-SUMO3-paxillin-LIM3 domain (domain or fragment, mouse, UniProt Q8VI36 473-533, looked up)
chain: APKCGGCARAILENYISALNTLWHPECFVCRECFTPFVNGSFFEHDGQPYCEVHYHERRGS
notes: paxillin LIM3 domain, A473-S533; Vector pCoofy17. 'murine' in the sentence of the methods stands before kindlin-2 and may or may not hold for paxillin-LIM3; also called His10-LIM3; His-tagged paxillin-LIM3 domain; source: E. coli Rosetta, purified (Ni-NTA, size-exclusion chromatography); not shown: His10, N-terminal, kept; SUMO3, N-terminal, kept
B1: binds.
